Reference: publication PMC9531334

Biological target: StnCBP-HA-NLuc
Experiment: SLC assay (split-luciferase complementation in leaves)
Conditions: luminescence intensity/50 mm2 leaf area; n = 3; parent: est. 3500; read off a plot

CLuc-GFP-HC-Pro^O V346I was tested, and the response was 3300.
